# Legend:
# [1] = biological target: EcoSSB;Eco chi-psi complex (Escherichia coli;Escherichia coli LK111lambda) (UniProt P0AGE0+P28905+P28632); assay: analytical ultracentrifugation (sedimentation velocity); conditions: Low salt: 5 mM NaCl, 5 mM KPi pH 7.4, 0.87 M glycerol, 0.5 mM DTT; high salt: 0.3 M NaCl, 20 mM KPi pH 7.4, 0.5 mM DTT; AUC at 20 C; EMSA incubated 10 min at …
# [2] = biological target: T1, Pae chi-psi complex (DNA polymerase III) (Pseudomonas aeruginosa PAO1) (UniProt O68823); assay: as above; conditions: Low salt: 5 mM NaCl, 5 mM KPi pH 7.4, 0.87 M glycerol, 0.5 mM DTT; high salt: 0.3 M NaCl, 20 mM KPi pH 7.4, 0.5 mM DTT; AUC at 20 C; EMSA incubated 10 min at …
# T1 sequence: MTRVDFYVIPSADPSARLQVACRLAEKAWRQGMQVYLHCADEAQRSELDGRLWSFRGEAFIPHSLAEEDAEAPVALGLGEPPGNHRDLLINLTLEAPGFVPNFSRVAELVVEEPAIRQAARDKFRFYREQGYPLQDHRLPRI
# [3] = biological target: PaeSSB;Pae chi-psi complex (DNA polymerase III) (Pseudomonas aeruginosa;Pseudomonas aeruginosa PAO1) (UniProt P40947+O68823); assay: as above; conditions: Low salt: 5 mM NaCl, 5 mM KPi pH 7.4, 0.87 M glycerol, 0.5 mM DTT; high salt: 0.3 M NaCl, 20 mM KPi pH 7.4, 0.5 mM DTT; AUC at 20 C; EMSA incubated 10 min at …
# [4] = biological target: P. aeruginosa single-stranded DNA-binding protein (P. aeruginosa) (UniProt P40947); assay: AUC; sedimentation velocity; χψ titrated to 6 μM SSB in high salt buffer, 50000 rpm, 20°C, 280 nm; free χψ from c(s); model of n independent χψ per SSB tetramer
# [5] = biological target: P. aeruginosa single-stranded DNA-binding protein (P. aeruginosa) (UniProt P40947); assay: AUC; sedimentation velocity; χψ titrated to 0.35 μM cognate SSB saturated with 12.3 μM poly(dT), low salt buffer, 22000 rpm, 20°C, 230 nm; model of n χψ per SSB tetramer
# P. aeruginosa single-stranded DNA-binding protein (P. aeruginosa), sequence (P40947 whole entry): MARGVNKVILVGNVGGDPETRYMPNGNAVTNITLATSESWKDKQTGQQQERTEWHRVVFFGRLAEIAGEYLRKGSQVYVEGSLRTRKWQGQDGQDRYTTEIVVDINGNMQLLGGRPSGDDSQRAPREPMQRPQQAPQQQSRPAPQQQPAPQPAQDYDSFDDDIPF
# PaeSSB;Pae chi-psi complex (DNA polymerase III) (Pseudomonas aeruginosa;Pseudomonas aeruginosa PAO1), sequence (P40947 2-165, one chain of several): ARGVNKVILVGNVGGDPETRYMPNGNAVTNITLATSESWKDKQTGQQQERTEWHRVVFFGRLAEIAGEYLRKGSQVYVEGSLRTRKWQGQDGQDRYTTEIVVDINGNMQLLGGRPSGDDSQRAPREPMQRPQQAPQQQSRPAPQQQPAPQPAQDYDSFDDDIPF
# EcoSSB;Eco chi-psi complex (Escherichia coli;Escherichia coli LK111lambda), sequence (P0AGE0 2-178, chain 1 of 3): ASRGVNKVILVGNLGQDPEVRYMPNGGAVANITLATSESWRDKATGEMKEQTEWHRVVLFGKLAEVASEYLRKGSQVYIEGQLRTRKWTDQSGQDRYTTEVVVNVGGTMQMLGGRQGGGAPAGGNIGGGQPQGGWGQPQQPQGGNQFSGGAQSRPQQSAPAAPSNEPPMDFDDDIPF
# EcoSSB;Eco chi-psi complex (Escherichia coli;Escherichia coli LK111lambda), sequence (P28905 whole entry, chain 2 of 3): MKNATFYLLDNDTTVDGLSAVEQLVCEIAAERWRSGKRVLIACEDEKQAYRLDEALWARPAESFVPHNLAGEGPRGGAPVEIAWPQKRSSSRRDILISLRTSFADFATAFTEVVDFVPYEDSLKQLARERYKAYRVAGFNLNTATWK
# EcoSSB;Eco chi-psi complex (Escherichia coli;Escherichia coli LK111lambda), sequence (P28632 whole entry, chain 3 of 3): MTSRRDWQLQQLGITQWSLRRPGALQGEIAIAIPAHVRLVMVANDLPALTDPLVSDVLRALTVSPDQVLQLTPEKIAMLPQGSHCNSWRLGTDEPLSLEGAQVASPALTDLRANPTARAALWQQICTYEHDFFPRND
Substance,Ka [1] [M⁻¹],Ka [2] [M⁻¹],Ka [3] [M⁻¹],Ka [4] [M⁻¹],stoichiometry N (χψ per SSB tetramer) [4],Ka [5] [M⁻¹],stoichiometry N (χψ per SSB tetramer) [5]
TTTTTTTTTTTTTTTTTTTTTTTTTTTTTTTTTTTTTTTTTTTTTTTTTTTTTTTTTTTTTTTTTTTTTTTTTTTTTTTTTTTTTTTTTTTTTTTTTTTTTTTTTTTTTTTTTTTTTTTTTTTTTTTTTTTTTTTTTTTTTTTTTTTTTTTTTTTTTTTTTTTTTTTTTTTTTTTTTTTTTTTTTTTTTTTTTTTTTTTTTTTTTTTTTTTTTTTTTTTTTTTTTTTTTTTTTTTTTTTTTTTTTTTTTTTTTTTTTTTTTTTTTTTTTTTTTTTTTTTTTTTTTTTTTTTTTTTTTTTT [poly(dT)],6e+06,500000,> 5e+07,–,–,–,–
P. aeruginosa χψ complex (from UniProt O68823 1-142),–,–,–,130000,2.2,> 5e+07,2.2

# — PMC3197488
